According to patent US20090099029A1, “Methods and substrates for conducting assays” (Invitrogen Corporation, priority 2005, published 2009):

System: kinases of Table 6 on Myelin Basic Protein (MBP)
Assay: Kinase assay using MBP substrate, ProQ Diamond stain (Table 6)
Format: biochemical
Settings: kinase printed on MBP-coated slide; 20 uM ATP, 30° C.; ProQ Diamond Microarray Stain; graded Strong/Weak/Negative
Experimental: In this illustrative example, four-well slides were designed with a hydrophobic mask surrounding 4-wells of aldehyde- or epoxy-coated glass (smooth or ES grade; Erie Scientific (Portsmouth, N.H.)). […] Bovine, dephosphorylated, Myelin Basic Protein (MBP) was purchased from Upstate Biotechnology (#13-110). MBP was diluted to 1 mg/ml in PBS, applied to the slide surface, covered with a coverslip, and left overnight at 4° C. to coat the slide with the MBP. Slides were washed 3 times with water and spun dry before printing.
Kinases were purchased from Panvera (Invitrogen, Carlsbad, Calif.), diluted in printing buffer (50 mM Tris pH 7.5, 25% glyercol, 0.05% TritonX-100, 2 mM DTT) and deposited using a GeneMachine OmniGrid100. Slides were stored at −20° C.
Reactions were performed following removal of the slide from the freezer. Reaction buffer (20 mM HEPES pH 7.5, 4 mM MgCl2, 2 mM DTT, 20 uM ATP, 5% DMSO) was added with or without inhibitor, a coverslip applied, and the slide placed at 30° C. for the appropriate reaction time. The slide was washed with water to stop the reaction (3 times) and spun dry. ProQ Diamond Microarray Stain (Invitrogen #P33706) was applied, covered with a coverslip, and the slide was incubated in the dark at room temperature for 30 minutes. The slide was destained and washed three times with water, and spun dry.

Row | Molecule | MBP Kinase Activity
1 | GRK6 (protein, left off: a dimerising Fc or GST) MELENIVANTVLLKAREGGGGNRKGKSKKWRQMLQFPHISQCEELRLSLERDYHSLCERQPIGRLLFREFCATRPELSRCVAFLDGVAEYEVTPDDKRKACGRQLTQNFLSHTGPDLIPEVPRQLVTNCTQRLEQGPCKDLFQELTRLTHEYLSVAPFADYLDSIYFNRFLQWKWLERQPVTKNTFRQYRVLGKGGFGEVCACQVRATGKMYACKKLEKKRIKKRKGEAMALNEKQILEKVNSRFVVSLAYAYETKDALCLVLTLMNGGDLKFHIYHMGQAGFPEARAVFYAAEICCGLEDLHRERIVYRDLKPENILLDDHGHIRISDLGLAVHVPEGQTIKGRVGTVGYMAPEVVKNERYTFSPDWWALGCLLYEMIAGQSPFQQRKKKIKREEVERLVKEVPEEYSERFSPQARSLCSQLLCKDPAERLGCRGGSAREVKEHPLFKKLNFKRLGAGMLEPPFKPDPQAIYCKDVLDIEQFSTVKGVELEPTDQDFYQKFATGSVPIPWQNEMVETECFQELNVFGLDGSVPPDLDWKGQPPAPPKKGLLQRLFSRQDCCGNCSDSEEELPTRL | Negative
2 | GRK7 (protein, left off: a dimerising Fc or GST) MVDMGALDNLIANTAYLQARKPSDCDSKELQRRRRSLALPGLQGCAELRQKLSLNFHSLCEQQPIGRRLFRDFLATVPTFRKAATFLEDVQNWELAEEGPTKDSALQGLVATCASAPAPGNPQPFLSQAVATKCQAATTEEERVAAVTLAKAEAMAFLQEQPFKDFVTSAFYDKFLQWKLFEMQPVSDKYFTEFRVLGKGGFGEVCAVQVKNTGKMYACKKLDKKRLKKKGGEKMALLEKEILEKVSSPFIVSLAYAFESKTHLCLVMSLMNGGDLKFHIYNVGTRGLDMSRVIFYSAQIACGMLHLHELGIVYRDMKPENVLLDDLGNCRLSDLGLAVEMKGGKPITQRAGTNGYMAPEILMEKVSYSYPVDWFAMGCSIYEMVAGRTPFKDYKEKVSKEDLKQRTLQDEVKFQHDNFTEEAKDICRLFLAKKPEQRLGSREKSDDPRKHHFFKTINFPRLEAGLIEPPFVPDPSVVYAKDIAEIDDFSEVRGVEFDDKDKQFFKNFATGAVPIAWQEEIIETGLFEELNDPNRPTGCEEGNSSKSGVCLLL | Negative
3 | GSK3A (protein, left off: small tags and cut ends) MSGGGPSGGGPGGSGRARTSSFAEPGGGGGGGGGGPGGSASGPGGTGGGKASVGAMGGGVGASSSGGGPGGSGGGGSGGPGAGTSFPPPGVKLGRDSGKVTTVVATLGQGPERSQEVAYTDIKVIGNGSFGVVYQARLAETRELVAIKKVLQDKRFKNRELQIMRKLDHCNIVRLRYFFYSSGEKKDELYLNLVLEYVPETVYRVARHFTKAKLTIPILYVKVYMYQLFRSLAYIHSQGVCHRDIKPQNLLVDPDTAVLKLCDFGSAKQLVRGEPNVSYICSRYYRAPELIFGATDYTSSIDVWSAGCVLAELLLGQPIFPGDSGVDQLVEIIKVLGTPTREQIREMNPNYTEFKFPQIKAHPWTKVFKSRTPPEAIALCSSLLEYTPSSRLSPLEACAHSFFDELRCLGTQLPNNRPLPPLFNFSAGELSIQPSLNAILIPPHLRSPAGTTTLTPSSQALTETPTSSDWQSTDATPTLTNSS | Weak
4 | EPHA3 (protein, left off: small tags and cut ends) RFCGYKSKHGADEKRLHFGNGHLKLPGLRTYVDPHTYEDPTQAVHEFAKELDATNISIDKVVGAGEFGEVCSGRLKLPSKKEISVAIKTLKVGYTEKQRRDFLGEASIMGQFDHPNIIRLEGVVTKSKPVMIVTEYMENGSLDSFLRKHDAQFTVIQLVGMLRGIASGMKYLSDMGYVHRDLAARNILINSNLVCKVSDFGLSRVLEDDPEAAYTTRGGKIPIRWTSPEAIAYRKFTSASDVWSYGIVLWEVMSYGERPYWEMSNQDVIKAVDEGYRLPPPMDCPAALYQLMLDCWQKDRNNRPKFEQIVSILDKLIRNPGSLKIITSAAARPSNLLLDQSNVDITTFRTTGDWLNGVWTAHCKEIFTGVEYSSCDTIAKISTDDMKKVGVTVVGPQKKIISSIKALETQSKNGPVPV | Strong
5 | IRAK4 (protein, left off: small tags and cut ends) MNKPITPSTYVRCLNVGLIRKLSDFIDPQEGWKKLAVAIKKPSGDDRYNQFHIRRFEALLQTGKSPTSELLFDWGTTNCTVGDLVDLLIQNEFFAPASLLLPDAVPKTANTLPSKEAITVQQKQMPFCDKDRTLMTPVQNLEQSYMPPDSSSPENKSLEVSDTRFHSFSFYELKNVTNNFDERPISVGGNKMGEGGFGVVYKGYVNNTTVAVKKLAAMVDITTEELKQQFDQEIKVMAKCQHENLVELLGFSSDGDDLCLVYVYMPNGSLLDRLSCLDGTPPLSWHMRCKIAQGAANGINFLHENHHIHRDIKSANILLDEAFTAKISDFGLARASEKFAQTVMTSRIVGTTAYMAPEALRGEITPKSDIYSFGVVLLEIITGLPAVDEHREPQLLLDIKEEIEDEEKTIEDYIDKKMNDADSTSVEAMYSVASQCLHEKKNKRPDIKKVQQLLQEMTAS | Strong
6 | MAP2K3(MEK3) (protein, left off: a dimerising Fc or GST) MSKPPAPNPTPPRNLDSRTFITIGDRNFEVEADDLVTISELGRGAYGVVEKVRHAQSGTIMAVKRIRATVNSQEQKRLLMDLDINMRTVDCFYTVTFYGALFREGDVWICMELMDTSLDKFYRKVLDKNMTIPEDILGEIAVSIVRALEHLHSKLSVIHRDVKPSNVLINKEGHVKMCDFGISGYLVDSVAKTMDAGCKPYMAPERINPELNQKGYNVKSDVWSLGITMIEMAILRFPYESWGTPFQQLKQVVEEPSPQLPADRFSPEFVDFTAQCLRKNPAERMSYLELMEHPFFTLHKTKKTDIAAFVKEILGEDS | Negative
7 | MAP2K6(MKK6) (protein, left off: small tags and cut ends) MSQSKGKKRNPGLKIPKEAFEQPQTSSTPPRDLDSKACISIGNQNFEVKADDLEPIMELGRGAYGVVEKMRHVPSGQIMAVKRIRATVNSQEQKRLLMDLDISMRTVDCPFTVTFYGALFREGDVWICMELMDTSLDKFYKQVIDKGQTIPEDILGKIAVSIVKALEHLHSKLSVIHRDVKPSNVLINALGQVKMCDFGISGYLVDSVAKTIDAGCKPYMAPERINPELNQKGYSVKSDIWSLGITMIELAILRFPYDSWGTPFQQLKQVVEEPSPQLPADKFSAEFVDFTSQCLKKNSKERPTYPELMQHPFFTLHESKGTDVASFVKLILGD | Weak
8 | MAP2K6, mutant (protein, left off: small tags and cut ends) MSQSKGKKRNPGLKIPKEAFEQPQTSSTPPRDLDSKACISIGNQNFEVKADDLEPIMELGRGAYGVVEKMRHVPSGQIMAVKRIRATVNSQEQKRLLMDLDISMRTVDCPFTVTFYGALFREGDVWICMELMDTSLDKFYKQVIDKGQTIPEDILGKIAVSIVKALEHLHSKLSVIHRDVKPSNVLINALGQVKMCDFGISGYLVDEVAKEIDAGCKPYMAPERINPELNQKGYSVKSDIWSLGITMIELAILRFPYDSWGTPFQQLKQVVEEPSPQLPADKFSAEFVDFTSQCLKKNSKERPTYPELMQHPFFTLHESKGTDVASFVKLILGD | Negative
